From article PMC4448915 (Structure (London, England : 1993), 2015)
Where “and” joins values, the source holds several entries; their conditions need not be identical. Identical values can stand only once. Like-named read-outs stand apart in the source and are kept apart here.

Key:
[1] = biological target: T1, ubiquitin (Ub), monomeric, wild type (UniProt P0CG48 1-76); experiment: NMR titration
[2] = biological target: T1, ubiquitin (Ub), monomeric, wild type; experiment: NMR titration; remark: listed apart in the source

Row | Kd [1] | Kd [2] [µM] | binding result [1] | stoichiometry N [1] | Binder
1 | 237 ± 52 µM |  |  |  | Ufo1UIMs, Ufo1 fragment of residues 547-668 comprising three UIM motifs (domain or fragment, UniProt Q04511 547-668, looked up) DEDEQLRRALEESQLIYETQTNSSANHGNNTNDEIDEDDEEFLRAIRQSRVEDERRRHLRNHTTGRRNGPLSDDNFATYGAAESSERTSTENTIGSSVGVDASNNVDEDLQLAIALSLSEIN
2 | 150 ± 16 µM | 291 ± 13 |  |  | TFPEQTIKQLMDLGFPRDAVVKALKQTNGNAEFAASLLFQ (domain or fragment, S. cerevisiae, UniProt P40087 389-428, looked up) [Ddi1UBA, ubiquitin-associated (UBA) domain of Ddi1 from Saccharomyces cerevisiae, residues 389-428]
3 |  |  | binds |  | full-length (FL) Ddi1 protein from Saccharomyces cerevisiae (natural protein, S. cerevisiae, UniProt P40087 1-428, looked up) MDLTISNELTGEIYGPIEVSEDMALTDLIALLQADCGFDKTKHDLYYNMDILDSNRTQSLKELGLKTDDLLLIRGKISNSIQTDAATLSDEAFIEQFRQELLNNQMLRSQLILQIPGLNDLVNDPLLFRERLGPLILQRRYGGYNTAMNPFGIPQDEYTRLMANPDDPDNKKRIAELLDQQAIDEQLRNAIEYTPEMFTQVPMLYINIEINNYPVKAFVDTGAQTTIMSTRLAKKTGLSRMIDKRFIGEARGVGTGKIIGRIHQAQVKIETQYIPCSFTVLDTDIDVLIGLDMLKRHLACVDLKENVLRIAEVETSFLSEAEIPKSFQEGLPAPTSVTTSSDKPLTPTKTSSTLPPQPGAVPALAPRTGMGPTPTGRSTAGATTATGRTFPEQTIKQLMDLGFPRDAVVKALKQTNGNAEFAASLLFQ
4 | 45 µM and 71 µM | 175 ± 25 |  | 1 | Ddi1UBL, ubiquitin-like (UBL) domain of DNA-damage-inducible 1 protein (Ddi1) from Saccharomyces cerevisiae, residues 2-80 (domain or fragment, S. cerevisiae, UniProt P40087 2-80, looked up) DLTISNELTGEIYGPIEVSEDMALTDLIALLQADCGFDKTKHDLYYNMDILDSNRTQSLKELGLKTDDLLLIRGKISNS
